Reference: article PMC11059233

Target: HLA-B*35:01 expressed in C1R cells (C1R.B*35:01) (human | human (endogenous in C1R))

## influenza B virus PB2_(66-70) peptide
  IFN-γ+TNF+ CD8+ T cells (expanded with pool J) after restimulation with peptide-pulsed C1R.B*35:01; donors responding: 1 of 6 donors
